This note sets out measurements from paper doi:10.1101/2025.01.14.632876v1.

Substrate in this data set: NC(=O)c1ccc[n+]([C@@H]2O[C@H](COP(=O)(O)OP(=O)(O)OC[C@H]3O[C@@H](n4cnc5c(N)ncnc54)[C@H](O)[C@@H]3O)[C@@H](O)[C@H]2O)c1
Put plainly: purified protein. The note with it: G6PDH activity, co-substrate G6P, 2 M KCl, 100 mM Tris-HCl pH 8.5.

B1: HvG6PDH (Haloferax volcanii DS2) (protein)
chain: MDQPVLLTGAGGRVGQAILGHIGDAYDWRLLDREPLSDEKIPDSVDSTEVYVADVTDETAVRNAMDGVHAVIHLAGDPRPEAPWDSVLRNNIDGTQQMFDAAVDVGVEKFAFASSNHAVGAYETTDRTPDMYRPHHEFRLDGTELPRPSNLYGVSKAAGETLGRYYHDHHDISVVNVRIGNLTQHHPPKEYERGQAMWLSYRDCGHLFECCIEADYDYEIVYGISDNDRKYYSIDRARAVLGYDPQDNSAEFTFEGEPLDEA
On to B1, for which the Km is listed as 198 ± 6 µM and the kcat amounted to 42.5 ± 0.1 s⁻¹.

The term Km denotes the concentration of substrate that gives half-maximal velocity. The term kcat denotes the maximal rate divided by the concentration of active sites.
